Source: IntAct's records for PubMed 20173742

B1: Kelch-like ECH-associated protein 1 (Mus musculus), Q9Z2X8 (parent)
chain: MQPEPKLSGAPRSSQFLPLWSKCPEGAGDAVMYASTECKAEVTPSQDGNRTFSYTLEDHTKQAFGVMNELRLSQQLCDVTLQVKYEDIPAAQFMAHKVVLASSSPVFKAMFTNGLREQGMEVVSIEGIHPKVMERLIEFAYTASISVGEKCVLHVMNGAVMYQIDSVVRACSDFLVQQLDPSNAIGIANFAEQIGCTELHQRAREYIYMHFGEVAKQEEFFNLSHCQLATLISRDDLNVRCESEVFHACIDWVKYDCPQRRFYVQALLRAVRCHALTPRFLQTQLQKCEILQADARCKDYLVQIFQELTLHKPTQAVPCRAPKVGRLIYTAGGYFRQSLSYLEAYNPSNGSWLRLADLQVPRSGLAGCVVGGLLYAVGGRNNSPDGNTDSSALDCYNPMTNQWSPCASMSVPRNRIGVGVIDGHIYAVGGSHGCIHHSSVERYEPERDEWHLVAPMLTRRIGVGVAVLNRLLYAVGGFDGTNRLNSAECYYPERNEWRMITPMNTIRSGAGVCVLHNCIYAAGGYDGQDQLNSVERYDVETETWTFVAPMRHHRSALGITVHQGKIYVLGGYDGHTFLDSVECYDPDSDTWSEVTRMTSGRSGVGVAVTMEPCRKQIDQQNCTC
partner: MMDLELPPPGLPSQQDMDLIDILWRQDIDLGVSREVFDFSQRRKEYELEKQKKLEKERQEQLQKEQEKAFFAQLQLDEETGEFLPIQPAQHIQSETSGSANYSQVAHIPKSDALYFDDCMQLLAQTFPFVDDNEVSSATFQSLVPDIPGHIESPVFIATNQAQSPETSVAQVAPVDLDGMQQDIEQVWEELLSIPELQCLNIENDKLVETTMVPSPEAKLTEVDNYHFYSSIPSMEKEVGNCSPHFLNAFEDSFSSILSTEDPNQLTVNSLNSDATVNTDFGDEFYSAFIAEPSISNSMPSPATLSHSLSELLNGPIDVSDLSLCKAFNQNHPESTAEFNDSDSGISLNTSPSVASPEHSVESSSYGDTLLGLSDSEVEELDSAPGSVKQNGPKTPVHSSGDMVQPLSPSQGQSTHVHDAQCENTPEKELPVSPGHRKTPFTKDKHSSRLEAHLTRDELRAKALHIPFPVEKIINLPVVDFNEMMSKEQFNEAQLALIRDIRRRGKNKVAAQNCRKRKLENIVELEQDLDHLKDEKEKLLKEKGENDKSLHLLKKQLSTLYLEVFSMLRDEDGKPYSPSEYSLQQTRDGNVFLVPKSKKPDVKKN

Variants of: B1
Settings: with nf2l2_human NFE2L2, Q16236

Variant | effect of a mutation on the interaction
R415A | disrupting interaction
S555A | decreasing interaction
Q530A | decreasing interaction
S602A | disrupting interaction
S508A | disrupting interaction
Y334A | disrupting interaction
R380A | decreasing interaction
N382A | disrupting interaction
S363A | disrupting interaction
